# Source: article PMC3208561, “Phylogenetic and Complementation Analysis of a Single-Stranded DNA Binding Protein Family from Lactococcal Phages Indicates a Non-Bacterial Origin”
# T1: Orf14bIL67 (phage SSB) (Lactococcus phage bIL67, UniProt Q38257 1-123)
# T1 sequence: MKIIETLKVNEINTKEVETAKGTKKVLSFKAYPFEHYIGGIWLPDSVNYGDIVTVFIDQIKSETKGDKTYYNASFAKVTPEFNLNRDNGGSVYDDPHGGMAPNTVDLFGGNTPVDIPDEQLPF
# Target: T1, Orf14bIL67 (phage SSB)
# Assay: EMSA; 30°C; protein up to 100 nM, 0.5 nM DNA; 20 mM Tris-HCl pH 7.5, 25 mM KCl, 1 mM EDTA, 1 mM DTT, 2.5% glycerol, 0.3 mg/ml BSA; 10 min at 30 or 38°C; 5% native PAGE in 0.25x TBE at 4°C
# Details: protein: recombinant; tags: IMPACT-CN (intein) purification; label: 5'-32P
binder,measurement,value
80-mer oligonucleotide (ssDNA) DNA: TTTGTCGGTACTTTATATTCTCTTATTACTGGCTCGAAAATGCCTCTGCCTAAATTACATGTTGGCGTTGTTAAATATGGGGG,binding result,binds
